# According to patent US20180208680A1 (published 2018):
# T1: BoNT/C1 holotoxin (Clostridium botulinum, UniProt P18640 2-1291)
# T1 sequence: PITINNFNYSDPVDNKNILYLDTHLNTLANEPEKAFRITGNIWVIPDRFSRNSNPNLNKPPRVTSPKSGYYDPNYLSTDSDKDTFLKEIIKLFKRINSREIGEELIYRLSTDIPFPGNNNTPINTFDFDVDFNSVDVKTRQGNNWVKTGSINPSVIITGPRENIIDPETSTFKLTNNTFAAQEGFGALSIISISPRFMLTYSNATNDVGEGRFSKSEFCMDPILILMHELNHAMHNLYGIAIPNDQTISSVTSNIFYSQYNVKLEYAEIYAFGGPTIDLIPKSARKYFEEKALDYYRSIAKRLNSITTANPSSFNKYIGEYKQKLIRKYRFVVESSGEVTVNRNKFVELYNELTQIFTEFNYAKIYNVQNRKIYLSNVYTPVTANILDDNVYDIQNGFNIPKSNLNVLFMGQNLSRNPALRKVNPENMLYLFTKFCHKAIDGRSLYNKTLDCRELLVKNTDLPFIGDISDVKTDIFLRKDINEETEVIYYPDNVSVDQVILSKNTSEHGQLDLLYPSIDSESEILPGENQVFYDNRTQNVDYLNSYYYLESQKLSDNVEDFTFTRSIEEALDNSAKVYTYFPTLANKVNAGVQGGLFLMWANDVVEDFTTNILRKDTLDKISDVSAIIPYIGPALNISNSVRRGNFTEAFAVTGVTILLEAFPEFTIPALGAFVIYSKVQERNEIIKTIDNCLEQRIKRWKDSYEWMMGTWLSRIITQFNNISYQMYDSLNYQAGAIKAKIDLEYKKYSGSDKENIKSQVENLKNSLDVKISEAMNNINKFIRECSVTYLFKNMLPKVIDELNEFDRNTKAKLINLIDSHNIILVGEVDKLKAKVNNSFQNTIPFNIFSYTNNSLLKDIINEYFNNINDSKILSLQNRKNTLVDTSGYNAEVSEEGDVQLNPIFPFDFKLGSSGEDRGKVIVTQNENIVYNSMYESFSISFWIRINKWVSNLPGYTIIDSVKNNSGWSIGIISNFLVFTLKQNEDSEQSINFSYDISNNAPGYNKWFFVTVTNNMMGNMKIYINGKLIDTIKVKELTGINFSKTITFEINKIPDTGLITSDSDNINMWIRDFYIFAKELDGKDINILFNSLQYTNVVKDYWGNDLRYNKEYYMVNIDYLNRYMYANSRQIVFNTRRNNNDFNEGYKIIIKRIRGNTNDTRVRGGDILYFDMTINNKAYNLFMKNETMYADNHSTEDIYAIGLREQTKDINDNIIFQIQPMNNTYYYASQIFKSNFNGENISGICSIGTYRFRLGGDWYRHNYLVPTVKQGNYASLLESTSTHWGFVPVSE
# Columns and labels:
# BoNT/C1 holotoxin [1] = target: T1, BoNT/C1 holotoxin; assay: IgG KinExA
# BoNT/C1 holotoxin [2] = target: T1, BoNT/C1 holotoxin; assay: yeast scFv FACS
# BoNT/C1 holotoxin [3] = target: T1, BoNT/C1 holotoxin; assay: yeast scFv FACS; remark: listed apart in the source
# BoNT/DC mosaic toxin [4] = target: T2, BoNT/DC mosaic toxin (Clostridium botulinum); assay: yeast scFv FACS
# BoNT/DC mosaic toxin [5] = target: T2, BoNT/DC mosaic toxin; assay: IgG KinExA
Binder,Kd (BoNT/C1 holotoxin [1]) [nM],Kd (BoNT/C1 holotoxin [2]) [nM],Kd (BoNT/C1 holotoxin [3]) [nM],Kd (BoNT/DC mosaic toxin [4]) [nM],Kd (BoNT/DC mosaic toxin [5]) [nM]
"8DC1.2 IgG (antibody, V domains shown) VH: QVTLKESGGGLVQPGRSLTLSCPLSGFTSSDYVLHWVRQAPGTGLDWVAVISSDGTKAYYGDSVKGRFTISRDTSKNTLLLQMNSPRAEDTAIYYCAISTRGPFDIWGHGTMVTVSS VL: DIQMTQSPSSLSAFVGDRITITCRASRGVSNYLAWYQQKPGKAPKLLIYAASSLQSGVPSRFSGSGSGTEFTLTISGLQPDDFATYYCQQYNAYPLTFGGGTKLEIK",0.736,–,–,–,–
"4C4 scFv (scFv, V domains shown) VH: QVQLVESGPGLVKPSQTLSLTCSVSGASINNSPYFWNWFRQFPGKGLEWIGYIYWSGSTNYNPSLKSRLAMSVDTSKNQFSLKLTSATAADTAVYYCARDQGGGTVVKENWFDPWGQGTLVTVSS VL: DIVMTQSPSSLSASVGDRLTMTCQASQDIGKHLNWYQQKAGKPPKLLIYGASNLKTGVPSRFSAGVSWTDFTFTISNVQPEDVATYYCQQSYSTPPTFGQGTKVEIKR",–,2.6,3,0.58,–
"4C4 IgG (antibody, V domains shown) VH: QVQLVESGPGLVKPSQTLSLTCSVSGASINNSPYFWNWFRQFPGKGLEWIGYIYWSGSTNYNPSLKSRLAMSVDTSKNQFSLKLTSATAADTAVYYCARDQGGGTVVKENWFDPWGQGTLVTVSS VL: DIVMTQSPSSLSASVGDRLTMTCQASQDIGKHLNWYQQKAGKPPKLLIYGASNLKTGVPSRFSAGVSWTDFTFTISNVQPEDVATYYCQQSYSTPPTFGQGTKVEIK",0.835,–,–,–,0.577
"4C4.1 IgG (antibody, V domains shown) VH: QVQLVESGPGLVKPSQTLSLTCSVSGASINNSPYFWNWFRQFPGKGLEWIGYIYWSGSTNYNPSLKSRLAMSVDTSKNQFSLKLTSATAADTAVYYCARDQGGGTVVKENWFDPWGQGTLVTVSS VL: ETTLTQSPSSLSASVGDRVSITCRASQSISNYLNWYQQKPGKAPKLLIYAASSLQSGVPSRFSGSGSGTDFTLTISSLQPEDFATYYCQQSYSDPPTFGQGTKVEIK",0.539,–,–,–,0.058
"4C4.1 scFv (scFv, V domains shown) VH: QVQLVESGPGLVKPSQTLSLTCSVSGASINNSPYFWNWFRQFPGKGLEWIGYIYWSGSTNYNPSLKSRLAMSVDTSKNQFSLKLTSATAADTAVYYCARDQGGGTVVKENWFDPWGQGTLVTVSS VL: ETTLTQSPSSLSASVGDRVSITCRASQSISNYLNWYQQKPGKAPKLLIYAASSLQSGVPSRFSGSGSGTDFTLTISSLQPEDFATYYCQQSYSDPPTFGQGTKVEIKR",–,–,1.5,0.06,–
"4C4.2 IgG (antibody, V domains shown) VH: QVQLVESGPGLVKPSQTLSLTCSVSGASINNSPYFWNWFRQFPGKGLEWIGYIYWSGSTNYNPSLKSRLAMSVDTSKNQFSLKLTSATAADTAVYYCARDQGGGTVVKENWFDPWGQGTLVTVSS VL: DIQMTQSPSTLSASVGDRVTITCRASQSIGTYLNWYQQKPGRAPTLLVSRTSNLHTGVPSRFSGDGSGSHFSLTIDSLQPEDFATYYCQQSHTSPVTFGQGTKVEIK",0.035,–,–,–,0.126
"4C4.2 scFv (scFv, V domains shown) VH: QVQLVESGPGLVKPSQTLSLTCSVSGASINNSPYFWNWFRQFPGKGLEWIGYIYWSGSTNYNPSLKSRLAMSVDTSKNQFSLKLTSATAADTAVYYCARDQGGGTVVKENWFDPWGQGTLVTVSS VL: DIQMTQSPSTLSASVGDRVTITCRASQSIGTYLNWYQQKPGRAPTLLVSRTSNLHTGVPSRFSGDGSGSHFSLTIDSLQPEDFATYYCQQSHTSPVTFGQGTKVEIKR",–,–,1.1,0.13,–
"4C10 scFv (scFv, V domains shown) VH: QVQLVESGGGAVQPGESLRLSCAASGFTFSGFDMHWVRQSPGRGLEWVARISHDGSMADYADSLRGRFTISRDNPKNTLYLHMNSLRVEDTALYYCAKDRWRSGSYPAFEKWGQGTMVTVSS VL: QSVPTQPASVSGSPGQSITISCTGTSSDVGAYNYVSWYQQHPGKAPKLMIYDVSDRPSGVSNRFSGSKSGNTASLTISGLQAEDEADYYCSSYTSSSTYVFGTGTKLTVL",–,–,–,107,–
